One series concerns the target HPA. The following applies: read-out: Ki against HPA, cited from earlier work.
Series [1] has as its target human pancreatic α-amylase (human) (UniProt P04746). The series can be described thus: enzyme inhibition kinetics.
In series [2] the target is porcine pancreatic α-amylase (porcine) (UniProt P00690). The series can be described thus: enzyme inhibition kinetics.
For series [3] the following is noted: cited from earlier work.
For series [4] the following is noted: cited from earlier work. The source holds these as a separate data set.

Where two headings read alike, the source gives them in different places.

Sequence of UniProt P04746 (P04746 16-511): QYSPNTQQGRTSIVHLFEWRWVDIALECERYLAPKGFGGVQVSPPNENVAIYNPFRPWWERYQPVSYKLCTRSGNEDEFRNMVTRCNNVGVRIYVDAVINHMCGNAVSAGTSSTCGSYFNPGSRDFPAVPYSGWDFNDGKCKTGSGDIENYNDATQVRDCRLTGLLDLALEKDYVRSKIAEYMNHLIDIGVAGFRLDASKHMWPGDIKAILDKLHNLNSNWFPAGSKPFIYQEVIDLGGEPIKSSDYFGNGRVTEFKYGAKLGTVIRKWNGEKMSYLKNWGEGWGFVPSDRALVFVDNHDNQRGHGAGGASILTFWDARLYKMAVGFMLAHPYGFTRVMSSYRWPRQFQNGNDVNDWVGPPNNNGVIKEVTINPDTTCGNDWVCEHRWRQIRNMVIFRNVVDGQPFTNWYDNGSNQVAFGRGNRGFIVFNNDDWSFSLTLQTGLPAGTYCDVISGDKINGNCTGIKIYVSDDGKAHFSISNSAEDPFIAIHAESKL
Sequence of UniProt P00690 (P00690 16-511): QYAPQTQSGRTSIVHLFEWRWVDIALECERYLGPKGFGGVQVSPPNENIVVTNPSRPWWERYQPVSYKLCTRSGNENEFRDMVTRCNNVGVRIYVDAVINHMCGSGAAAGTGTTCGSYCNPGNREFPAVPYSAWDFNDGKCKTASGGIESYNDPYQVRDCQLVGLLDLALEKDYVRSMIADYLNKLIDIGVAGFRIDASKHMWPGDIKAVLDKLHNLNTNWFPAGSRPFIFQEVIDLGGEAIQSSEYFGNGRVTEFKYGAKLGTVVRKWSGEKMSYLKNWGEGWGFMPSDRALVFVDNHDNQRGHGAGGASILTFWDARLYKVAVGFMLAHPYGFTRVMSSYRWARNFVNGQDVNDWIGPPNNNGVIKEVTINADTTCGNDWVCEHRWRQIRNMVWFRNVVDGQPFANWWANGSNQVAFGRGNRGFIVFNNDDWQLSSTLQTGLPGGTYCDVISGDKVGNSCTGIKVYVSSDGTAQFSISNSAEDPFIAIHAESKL

For Montbretin A [reference compound], the Ki on HPA is 8 nM.

Regarding recombinant helianthamide (peptide), the Ki in series [1] came to 0.01 nM; in series [2], 0.1 nM.

B1: tendamistat: 74-residue peptide with two disulfide bonds from Streptomyces tendae (protein, UniProt P01092 31-104, looked up)
Alpha-amylase inhibitor …: DTTVSEPAPSCVTLYQSWRYSQADNGCAQTVTVKVVYEDDTEGLCYAVAPGQITTVGDGYIGSHGHARYLARCL
As to B1, the vulnerability to degradation result in series [3] was “vulnerability to degradation”. Besides, on HPA (estimated), the Ki was 0.009 to 0.2 nM. The immunogenicity result in series [4] (clinic) is “pronounced immunogenicity”. In addition, in series [4] (clinical trials), the “blood plasma glucose levels” value is “significant decrease in blood plasma glucose levels”.

One may read the Ki as a measure of affinity in units of concentration, obtained from inhibition or displacement.

The values above are taken from article PMC4819454 (ACS Central Science, 2016).
